Earlier results on one substance are cited in paper PMC8073936.

For the series, the target named is TRF1 (Homo sapiens) (UniProt P54274).
Sequence of UniProt P54274 (P54274 2-439): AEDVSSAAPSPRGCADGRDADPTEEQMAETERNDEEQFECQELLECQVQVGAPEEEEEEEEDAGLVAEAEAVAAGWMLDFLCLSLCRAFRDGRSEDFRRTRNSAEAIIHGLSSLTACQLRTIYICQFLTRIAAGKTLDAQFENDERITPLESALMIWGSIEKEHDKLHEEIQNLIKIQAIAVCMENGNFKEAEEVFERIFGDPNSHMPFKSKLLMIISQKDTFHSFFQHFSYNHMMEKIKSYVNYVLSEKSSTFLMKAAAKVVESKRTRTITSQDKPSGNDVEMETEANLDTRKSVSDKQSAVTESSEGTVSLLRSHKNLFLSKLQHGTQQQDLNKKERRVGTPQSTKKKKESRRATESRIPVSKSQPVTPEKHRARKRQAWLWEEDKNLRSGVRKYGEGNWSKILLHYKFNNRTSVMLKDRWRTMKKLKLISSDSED

As to Ku70/80 (from UniProt P12956), the Kd was 0.4 nM.

By Kd is commonly meant the constant that tells how readily two partners part at equilibrium.
